Data published in patent publication US20190177408A1 (SUZHOU CONNECT BIOPHARMACEUTICALS, published 2019).

T1: human soluble IL-4Rα (sIL-4Rα) (human, UniProt P24394 26-232)
T1 construct: Bought reagent (PEPRO TECH, Catalog Number 200-04R); also called shIL-4Rα; soluble hIL-4 Rα
T1 sequence: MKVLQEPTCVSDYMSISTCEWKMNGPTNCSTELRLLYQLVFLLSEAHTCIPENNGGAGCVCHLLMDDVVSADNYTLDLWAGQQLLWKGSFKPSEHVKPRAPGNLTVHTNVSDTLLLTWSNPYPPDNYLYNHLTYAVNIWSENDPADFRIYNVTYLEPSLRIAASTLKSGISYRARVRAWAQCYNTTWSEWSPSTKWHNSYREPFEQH

T2: IL-4Rα on TF-1 cells (human, UniProt P24394 26-825)
T2 sequence (looked up): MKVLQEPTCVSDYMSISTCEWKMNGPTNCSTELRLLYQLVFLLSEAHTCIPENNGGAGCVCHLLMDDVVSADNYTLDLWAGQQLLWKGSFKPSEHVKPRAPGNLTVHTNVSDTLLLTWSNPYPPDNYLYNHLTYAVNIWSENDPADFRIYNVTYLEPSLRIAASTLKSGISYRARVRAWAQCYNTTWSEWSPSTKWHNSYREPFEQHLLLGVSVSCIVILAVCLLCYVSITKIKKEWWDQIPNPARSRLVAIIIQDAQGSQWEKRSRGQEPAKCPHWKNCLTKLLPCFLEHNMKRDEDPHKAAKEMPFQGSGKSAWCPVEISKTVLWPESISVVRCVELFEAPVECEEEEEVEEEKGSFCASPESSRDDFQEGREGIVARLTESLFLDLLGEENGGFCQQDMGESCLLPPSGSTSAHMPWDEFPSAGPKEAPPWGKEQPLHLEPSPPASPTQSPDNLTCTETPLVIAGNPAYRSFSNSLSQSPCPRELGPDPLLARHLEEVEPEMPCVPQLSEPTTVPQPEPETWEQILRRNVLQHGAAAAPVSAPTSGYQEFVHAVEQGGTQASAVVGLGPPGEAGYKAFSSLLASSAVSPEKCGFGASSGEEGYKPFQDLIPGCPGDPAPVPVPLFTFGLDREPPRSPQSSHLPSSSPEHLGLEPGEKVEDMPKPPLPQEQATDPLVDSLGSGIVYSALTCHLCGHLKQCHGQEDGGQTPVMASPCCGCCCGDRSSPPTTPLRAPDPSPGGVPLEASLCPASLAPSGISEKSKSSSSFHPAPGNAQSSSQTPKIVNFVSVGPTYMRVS


Tests used:
[1] = biological target: T1, human soluble IL-4Rα (sIL-4Rα); assay: ELISA, coated sIL-4Rα, culture supernatant
Description: 100 μl of 100 μg/ml sIL-4Rα solution was added to 9.90 ml of PBS, mixed up and down, and then an antigen coating buffer of 1.0 μg/ml was obtained. The prepared antigen coating buffer was added to a 96-well ELISA plate (Corning) with a volume of 100 μl per well. The 96-well ELISA plate was incubated overnight in a refrigerator at 4° C. On the next day; the solution therein was discarded; and PBS containing 2% BSA was added to the 96-well ELISA plate row by row with a volume of 300 μl per well. The 96-well ELISA plate was incubated for 2 hours in a refrigerator at 4° C., Then the PBS containing 2% BSA was discarded and the plate was washed 3 times with PBST. Diluted antibodies to be tested were sequentially added to the corresponding wells, while the normal cell culture supernatants, as negative control samples, were added too. Three duplicate wells were made for each sample with a volume of 100 μl per well. The ELISA plate was wrapped with preservative film (or covered) and incubated for 1 h at […] in a constant temperature incubator. Subsequently, the 96-well ELISA plate was taken out, and the solution therein was discarded. After washing with PBST for 3 times, TMB solution (Solarbio, Catalog Number: PR1200) was added to the 96-well ELISA plate row by row with a volume of 100 μl per well. The 96-well ELISA plate was placed at room temperature for 5 minutes, and 2 M H2SO4 solution was added in immediately to terminate the reaction. The 96-well ELISA plate was placed in flexstation 3 (Molecular Devices), the values of OD450 were read, and the data were collected, calculated and analyzed. Results were expressed relative to the affinity of control antibody 1.

[2] = biological target: T2, IL-4Rα on TF-1 cells; assay: cell-based or functional assay
[3] = biological target: T2, IL-4Rα on TF-1 cells; assay: cell-based or functional assay; remark: listed apart in the source

OD 450/OD450Control antibody 1 [1] | IC50 (ng/ml) (Inhibition on the proliferation of IL-4) [2] [ng/mL] | IC50 (ng/ml) (Inhibition on the proliferation of IL-13) [2] [ng/mL] | Inhibitory rate on pro-proliferative effect of IL-4 [3] | Inhibitory rate on pro-proliferative effect of IL-13 [3] | Binder
0.24 | 15.4 | 28.6 | 0.91 | 0.75 | L1021H1020 (antibody, V domains shown, human kappa) VH: EVQLVQSGGGLVHPGGSLRLSCAGSGFTFSRNAMFWVRQAPGKGLEWVSGIGTGGATSYADSVKGRFTISRDNAKNSLYLQMNSLRAEDMAVYYCARGRYYFPWWGQGTLVTVSS VL: EIVLTQSPGTLSLSPGERATLSCRASQSVSSSYLAWYQQKPGQAPRLLIFGASSRAPGIPDRFSGSGSGTDFTLTISRLEPEDFAVYYCQQYDHSAGWTFGQGTKVEIK
0.9 | 34.3 | 76.5 | 1.01 | 0.93 | L1021H1031 (antibody, V domains shown, human kappa) VH: EVQLVESGGGLVQPGGSLRLSCAASGFTFSRNAMFWVRQAPGKGLEWVSGIGTGGATSYADSVKGRFTISRDNAKNSLYLQMNSLRAEDTAVYYCARGRYYFDYWGQGTLVTVSS VL: EIVLTQSPGTLSLSPGERATLSCRASQSVSSSYLAWYQQKPGQAPRLLIFGASSRAPGIPDRFSGSGSGTDFTLTISRLEPEDFAVYYCQQYDHSAGWTFGQGTKVEIK
